Data taken from patent US20230110287A1.

Target: mouse (murine) NGF (mouse) (UniProt P01139)
Assay: SPR, purified antibody, beta muNGF, 39 C

mouse (murine) NGF (mouse), sequence (P01139 122-241 limits assumed): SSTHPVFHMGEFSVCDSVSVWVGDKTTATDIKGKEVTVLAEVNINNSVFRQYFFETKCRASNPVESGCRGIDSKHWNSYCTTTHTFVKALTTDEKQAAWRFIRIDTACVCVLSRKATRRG

- Kd: 0.905 pM
- koff: 6.2e-06 s⁻¹
- kon: 6.86e+06 M⁻¹ s⁻¹
Substance: chimeric αD11 (rat αD11 variable regions fused to canine constant chain regions) (antibody)
